{
  "source": "patent CN115125215A",
  "key": {"[1]": {"target": "原核表达并纯化的sIFN-λ4重组蛋白 (porcine IFN-λ4, E. coli, pET-15b-sIFN-λ4) (pig)", "assay": "indirect ELISA, antigen coated in 2-fold dilutions; positive if OD630nm of the well : OD630nm of the negative well ≥2.1"}, "[2]": {"target": "原核表达并纯化的sIFN-λ4重组蛋白 (porcine IFN-λ4, E. coli, pET-15b-sIFN-λ4) (pig)", "assay": "indirect ELISA, purified ascites antibody diluted 100-fold and then in 2-fold steps to 100×2^12"}},
  "data": [
    {"binder": "单克隆抗体λ4-1A2 (sIFN-λ4单克隆抗体, secreted by hybridoma cell line λ4-1A2, CCTCC NO:C2022132) (antibody, V domains shown) VH: QVTLKESGPGKLQPSQTLTLTCSFSGFSLNTYGIGVAWIRQPSGKGLEWLAHIWWNDNKYYNSALKTRLTISKDTSNNQVFLKIASVDTADTATYYCASIKGDYWGQGTS VL: NIVLTQSPASLAVSLGQRATISCRASKSVDSFGKSFMHWYQQKPGQPPKLLIYLVSNLESGVPARFSGSGSRTDFTLTIDPVEADDAATYYCQQNNEDPPTFGGGTKLEIKR", "values": [
      {"measurement": "最低检测限 (lowest detectable amount of coated antigen)", "setting": "[1]", "result": 6.25, "unit": "ng"},
      {"measurement": "效价 (ELISA titre) (fold dilution)", "setting": "[2]", "result": 205000}
    ]}
  ]
}
